From the supplement of paper PMC9170038

System: MS2 coat protein
Assay: apparent KD of MS2 coat protein; higher = weaker reporter binding
Conditions: Eterna round: R107
Experimental: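 RNA-MaP round R107: designed RNA switches with theophylline, tryptophan, arginine or FMN aptamers are transcribed on-chip within common flanks. They are titrated with SNAP-549-labelled MS2 coat protein in RNA-MaP buffer (100 mM Tris pH 7.5, 80 mM KCl, 4 mM MgCl2), without ligand or with the indicated ligand. Median apparent KD per design.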

[1] = input ligand: theophylline 20 uM
[2] = input ligand: tryptophan 2.4 mM
[3] = input ligand: theophylline 2 mM

Sequence	apparent KD of MS2 coat protein (input ligand: arginine 13.2 mM) [nM]	apparent KD of MS2 coat protein [1] [nM]	apparent KD of MS2 coat protein [2] [nM]	apparent KD of MS2 coat protein [3] [nM]	apparent KD of MS2 coat protein (input ligand: none) [nM]
ACAUCCAGGUUAAUCGUGGGCAUACUCGAUACCAGUAUUUUAAUCUACCCUUGGCAGCGACAUGAGGAUCACCCAUGUGCGAUGA [XTheo A #12]	11.7	14.1	13.4		
CUCAUCCACGCGGCCGCCACUAUAUUGUGGUGCGAAUGUGUCGUAAUACAUGAGGAUCACCCAUGUAGGACCGGGCGUGGAUGAG [#09 Exclusion Tryptophan B]	10.3	14.4		13.5	
CAGAACAUGAGGAUCACCCAUGUAAACGACCGAGGACCGGUACGGCCGCCACUCGAUAUGUCUUGAGGGAGAUAUGGAUUCACAU [theeternabot_sameState_MS2_Trp_A_46]	23	51.4		44.4	
AACAUGAGGAUCACCCAUGUGUCCUCGAAACGAGGACCGGUACGGCCGCCACUCGAAUAAGCUGUUGACGAAAAGUCAGCAGCAA [Mat - Exclusion - Trytophan A - D19]	91	327		314	
ACGGAUCGGAAACGAUCCGCGGCUAGGGUGCGAGGACCGGUACGGCCGCCACUCGGGUAACAUGAGGAUCACCCAUGUCUGAUUU [ETA NP+V+V2 #14]	50.6	116	587	118	123
ACGUAAUGCAGAAGGAGCGUCGAUCUCAUACAUGAGGAUCACCCAUGUUACAUGGUUGGACGACAGGUAGGUCGCUGAAGUACGA [#06 Exclusion - Arginine B]	24.2	35.5	21.4	27.4	20.6
AUGGUUGUCGCGGCCGCCACUGUCGGCCGCCACUAAACAUGAGGAUCACCCAUGUAGGACCGGGACAGGACCGGGUGAUAACCAC [TryBS - #DoubleAptamer 3]	24.1	33.9	14.3	33.2	25.9
ACACGUGAGGAUCAUCCAUGUGCCCAUGAAGGAGCGUGGGAAACCACAGGUAGGUCGCAUGACAUGAGGAUCACCCAUGUUUAUU [#04 Exclusion - Arginine A]	43.1	109	91	105	86.9
UGACAUUGCUCAGAUACCAGACAUGAGCAUCAGCCAUGUGCCAACAAGUACAAAAUAAAAGUCCCUUGGCAGCUGAGCAAUGUCU [TheoBX 21 #MS2Left #AlternativeMS2 #Theo2]	11.3	11.3	10.6	29.1	9.88
UUAAUCAUAUAUGAAAACAUAUAUGCAGAAGGAGCGUGAUAAAACACAGGUAGGUCGCUGAAGGGAACAUGAGGAUCACCCAUGU [AstrosSSArgA#2]	47.4	49	32.4	31.5	24.8
GGGAAUGAACGUGAUACCAGAGAUCCGGUCUCCGUCAAUAUACAUGAGGAUCACCCAUGUCUCCCUUGGCAGCACCGUCAUCGGG [Exclusion Theophylline B GF 28]	14.3	20.4	14.5		
AAUGUAUGGCACAUGAGGAUCACCCAUGUGCGAGGACCGGUACGGCCGCCACUCGGUCCUGGGAACUUAUUACUAUACAUUAAUG [XTryp A #18]	11.9	16.9		13.1	
GUAUGAGUUGACUGUGAGACUGGCGUGGAAGGAGCGCACGGAGGUGCAGGUAGGUCGCCACAUGAGGAUCACCCAUGUCAGGCCG [Ceedtila]	32.4	56.4	53	111	38
GAUGAACUAUUUGAUACCAGACAACAUGAGGAUCACCCAUGUGCGCGUCGUCCUCUGCCUGUCCCUUGGCAGCGGAUAGUUUAUC [XTheo B #12]	32.5	124	34.9		
GCGGUGGUCGGAAGGAGCGACAUGAGGAUCACCCAUGUCUCCCGUUAUGGGAGUUCCUUAGGUCAGGUAGGUCGCCGACUGCCGC [#1 Exclusion - Arginine B Attempt #21 (Inspired by Omei)]	105	234	227	260	195
AGAUGAGUCACGGCCGCCACUCUUAUCAGGAUCACCCAUGGUUAACAUGAGGAUCACCCAUGUCUGAGGACCGGGUGAUGAGCAU [XTryp B #2]	18.3	31.4		25.3	
AGUACACGAACGGAUACCAGCCGGACAUGAGGAUCACCCAUGUCCUACCUCUGUUCGGUUGGCCCUUGGCAGCCGUUCGUGUACA [Omei Theo B SS A v8]	122	590	208		
UUUACAUGAGGAUCACCCAUGUGCCAUGAUACCAGACAUGAAAAUGUCCCUUGGCAGCAUGAGUGAAGCGUCGGGAAACCGACGC [Kninicky]	57.1	229	261	297	249
UAUUUUGUGAUGGAUACCAGCAGAGAAAACGUUUAUCCUAACAUGAGGAUCACCCAUGUAUGCCCUUGGCAGCUGUUGUGGGAUA [8.Q]	24.9	42	29.9		

Sequence	apparent KD of MS2 coat protein (input ligand: arginine 13.2 mM) [nM]	apparent KD of MS2 coat protein [1] [nM]	apparent KD of MS2 coat protein [2] [nM]	apparent KD of MS2 coat protein [3] [nM]	apparent KD of MS2 coat protein (input ligand: none) [nM]
GCAUUAUUAUUAGAUACCAGUGUCGCAGGCGACAUGAGGAUCACCCAUGUAAAGUUACUCCACCCUUGGCAGCUAGUUCGACUAC [theeternabot_sameState_MS2_Theo_B_21]	56	124	101		
CUUCAACAUGAGGAUCACCCAUGUAGUGAUACCAGUCACUCAUACGACCCUUGGCAGCACAUUUUCUGUCGGCAUGUAGACGAUC [theeternabot_sameState_MS2_Theo_A_33]	73.6	172	173		
UGUAUGUGAUUUGAUACCAGACCAGCUGGUGGUCCAUGAGGAACACCCAUGGAGGUUUGGGUCCCUUGGCAGCAAAUCGCAUACU [SS Theo B #24 Ms20]	152	130	89.7	74.5	
UCGCUCUGGGUGAGUUCCGGAGAUGUGGAAGGAGCGCUCGAAAGAGCAGGUAGGUCGCCAACGGACAUGAGGAUCACCCAUGUAC [Same State - Arginine A (Freestyle 21)]	33.8	76.1	40.3	34.4	39.1
GGGUACAUCGCGGCCGCCACUCAUGUAAAUGCAUGAGGAACACCCAUGCCGAUGGAGACAUCGGAGAGGACCGGGUGAUGUACCG	66	157	93.7	148	110
AGCGCAGGUCCUGAUACCAGAGACAUGAGGAUCACCCAUGUCCGGUGGUCCUGCCACAGGCUCCCUUGGCAGCAGGGCUUGUGCU [Exclusion Theophylline B GF9]	31.4	40.8	29.1	60.5	28.7
UCGUUUUAGUCGGCCGCCACUGUAUGCAUGUUUAACAUGAGGAUCACCCAUGUCCCGUUCUAUUUCAGGACCGGGACGUAAUCGA [JR_SSTryptoB_Sub008]	106	382		619	
AGGAACAUGAGGAUCACCCAUGUAAGCGAUACCAGUGAUAUGUUGCGCCCUUGGCAGCGCAAGUGUGUGUGAAAGAUGUAAGAUU [Eclusion - Theophylline A / A]	14.6	29.3	16.7		
AGACAUGAGGAUCACCCAUGUAGUAUGGAUACCAGAUGUAGAUUAGUCCCUUGGCAGCUGUGCUGAAGUGAUGCAUUGCUCCUAG [#15 Exclusion-TheophyllineA]	21.9	33.5	23.6	24.2	22.1
CCUAUCCAGUCGGCCGCCACUGACCAUUUGGAACAGUGGGUGAAAACAUGAGGAUCACCCAUGUACAGGACCGGGACUGUAUAGG [Ex Tryptophan B 20]	14.7	15.7		13.9	
GGAGCUACGUCGGCCGCCACUAGCGGUAAUUACGUGUACAUGAGGAUCACCCAUGUAAUAUGGACUAGGACCGGGACGUAGCUCC [Salmon]	10.6	21.8	12.2	13.7	13.3
GGCACAUGUGGAAGGAGCGUCGUACGAGCUACAUGAGGAUCACCCAUGUCGGUUAGUGUCCGACAGGUAGGUCGCCACAUUUAAC [Isiser]	114	235	195	551	374
ACAUGAGGAUCACCCAUGUAAAUAACGGAAGGAGCGUGCGAAAGCACAGGUAGGUCGCCGAUAUAAAUAUUGGGUAUUAUAUUAU [#28 Exclusion - Arginine A]	17.8	47.1	28.8	29.1	31.8
AACAUGAGGGCGGCCGCCACUCCAUGAACAUGAGGAUCACCCAUGUUGAGGAUCACCCAUGUUGUGAGGACCGGGCCACAUGAGG [Exclusion Tryptophan B 3]	31.7	66.1	89.6	59.8	38
UCAUAAGUACCGGUCCUCAGAUCCUCAUGACGAGGACCGGUACGGCCGCCACUCGAAACAUGAGGAUCACCCAUGUAAUAAUAUU [Brourdmod11]	19.5	28.5		27.3	
CUUGUGGUCGGAAGGAGCGCGAUUACAUAACAUGAGGAUCACCCAUGUAAGAAAUUAUUCAUGCAGGUAGGUCGCCGGUCGUGGG [Same State Arginine B GF10]	22	29.6	21.8	22.6	21.4
GCUACAUGAGGAUCACCCAUGUAUGCGAGCCGAGGACCGGUACGGCCGCCACUCGCUUAACAUGAGGAUCACCCAUGUUUCUCGG [SSTA DOUBLE!!! :-D #16]	69.9	193		254	
AGUACAUGAGGAUCACCCAUGUAUCGGUACCGAGGACCGGUACGGCCGCCACUCGCAGGACAUGAGGAUCACCCAUGUGCCGCCG [SSTA DOUBLE!!! :-D #9]	13.9	22.6		22.4	
UUAUUUAUAGGCGAUACCAGCCGAAUGGCCGCAAAUCCUAACAUGAGGAUCACCCAUGUCGGCCCUUGGCAGCGCCUAUGGGUUU [XTheo B #27]	114	255	93.3	480	94.7
